Molecular target: Neisseria meningitidis Cas9 (NmeCas9, from strain 8013), 6×His-tagged (Neisseria meningitidis (strain 8013)) (UniProt C9X1G5)
Sequence of UniProt C9X1G5 (C9X1G5 whole entry): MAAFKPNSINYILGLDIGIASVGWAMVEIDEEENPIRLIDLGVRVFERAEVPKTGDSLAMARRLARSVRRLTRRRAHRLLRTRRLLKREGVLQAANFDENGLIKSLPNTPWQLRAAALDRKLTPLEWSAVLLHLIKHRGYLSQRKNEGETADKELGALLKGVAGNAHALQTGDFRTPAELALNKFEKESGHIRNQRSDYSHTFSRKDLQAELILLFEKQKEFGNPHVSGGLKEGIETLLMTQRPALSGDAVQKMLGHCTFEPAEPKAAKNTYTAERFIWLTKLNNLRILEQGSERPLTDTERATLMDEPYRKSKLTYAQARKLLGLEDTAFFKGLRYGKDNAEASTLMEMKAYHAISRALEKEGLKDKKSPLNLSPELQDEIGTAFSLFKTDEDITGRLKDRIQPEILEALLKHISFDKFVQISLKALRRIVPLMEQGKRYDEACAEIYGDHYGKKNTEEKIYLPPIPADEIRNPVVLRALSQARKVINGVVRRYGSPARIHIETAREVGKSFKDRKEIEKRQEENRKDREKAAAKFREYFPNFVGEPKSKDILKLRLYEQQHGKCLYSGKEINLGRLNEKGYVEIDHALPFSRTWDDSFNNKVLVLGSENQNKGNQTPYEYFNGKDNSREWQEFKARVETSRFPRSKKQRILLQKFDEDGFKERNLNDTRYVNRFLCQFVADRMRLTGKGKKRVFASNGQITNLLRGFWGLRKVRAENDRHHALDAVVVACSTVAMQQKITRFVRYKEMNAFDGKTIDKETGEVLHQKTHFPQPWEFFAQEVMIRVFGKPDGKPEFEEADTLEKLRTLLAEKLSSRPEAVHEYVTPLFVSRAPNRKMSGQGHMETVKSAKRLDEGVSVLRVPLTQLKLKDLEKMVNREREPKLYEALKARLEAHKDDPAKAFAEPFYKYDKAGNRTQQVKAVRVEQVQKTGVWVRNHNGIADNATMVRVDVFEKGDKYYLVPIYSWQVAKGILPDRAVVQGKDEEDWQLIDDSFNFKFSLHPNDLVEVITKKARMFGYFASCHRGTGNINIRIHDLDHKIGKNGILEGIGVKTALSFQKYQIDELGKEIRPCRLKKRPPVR

Substance: AcrIIC5Smu, untagged (natural protein)
- in vitro cleavage of linearized target plasmid by NmeCas9-sgRNA; molar excess of Acr over Cas9 at complete inhibition (fold molar excess of Acr): 7
